In the RNAGym collection of RNA variant scans (doi:10.7554/elife.80360):

B1: CPEB3 Ribozyme (parent)
chain: GGGGGCCACAGCAGAAGCGUUCACGUCGCGGCCCCUGUCAGAUUCUGGUGAAUCUGCGAAUUCUGCUGU

Variants of: B1
Assay: self-cleavage, relative activity (ratio to wild type); higher = more cleavage; co-transcriptional

Going from C7G G30U to C7G G31A, the self-cleavage falls from 0.564 to 0.45.

First: C7G G31C
Second: C7G G31U
The self-cleavage of the first is lower: 0.101 for the first, 0.521 for the second.

First: C7G G41U
Second: C7G G47A
The self-cleavage of the first is lower: 0.121 for the first, 0.452 for the second.

First: C7G G48A
Second: C7G G48U
The self-cleavage of the first is lower: 0.457 for the first, 0.548 for the second.

Compared with C7G G50A, C7G G50C is lower in self-cleavage: 0.456 for the first, 0.294 for the second.

Compared with C7G G50U, C7G G56A is lower in self-cleavage: 0.465 for the first, 0.333 for the second.

Going from C7G G56C to C7G G58C, the self-cleavage rises from 0.211 to 0.285.

First: C7G G58U
Second: C7G G65A
The self-cleavage of the first is higher: 0.528 for the first, 0.162 for the second.

Going from C7G G65C to C7G G65U, the self-cleavage rises from 0.126 to 0.217.

Compared with C7G G68A, C7G G68U is lower in self-cleavage: 0.824 for the first, 0.808 for the second.

Going from C7G U20A to C7G U20C, the self-cleavage falls from 0.163 to 0.143.

Compared with C7G U20G, C7G U21C is higher in self-cleavage: 0 for the first, 0.173 for the second.

Going from C7G U26C to C7G U36C, the self-cleavage falls from 0.247 to 0.0551.

Going from C7G U36G to C7G U43A, the self-cleavage rises from 0.147 to 0.274.

Going from C7G U43G to C7G U44A, the self-cleavage falls from 0.29 to 0.28.

First: C7G U44C
Second: C7G U44G
The self-cleavage of the first is higher: 0.282 for the first, 0.252 for the second.

Compared with C7G U46A, C7G U46C is lower in self-cleavage: 0.453 for the first, 0.38 for the second.

First: C7G U49G
Second: C7G U53A
The self-cleavage of the first is higher: 0.469 for the first, 0.219 for the second.

Compared with C7G U53C, C7G U53G is lower in self-cleavage: 0.217 for the first, 0.147 for the second.

Going from C7G U55A to C7G U55C, the self-cleavage rises from 0.124 to 0.185.

Going from C7G U55G to C7G U61A, the self-cleavage rises from 0.119 to 0.159.

Going from C7G U61C to C7G U61G, the self-cleavage falls from 0.175 to 0.172.

Going from C7G U62C to C7G U62G, the self-cleavage falls from 0.285 to 0.244.

First: C7G U64A
Second: C7G U64C
The self-cleavage of the first is higher: 0.279 for the first, 0.17 for the second.

First: C7G U64G
Second: C7G U67A
The self-cleavage of the first is lower: 0.232 for the first, 0.773 for the second.

Compared with C7G U67C, C7G U69C is higher in self-cleavage: 0.635 for the first, 0.861 for the second.

Going from C7G U69G to C7U, the self-cleavage rises from 0.779 to 0.968.

Compared with C7U A8C, C7U A8G is lower in self-cleavage: 0.954 for the first, 0.918 for the second.

Compared with C7U A8U, C7U A10C is higher in self-cleavage: 0.945 for the first, 0.994 for the second.

Going from C7U A10G to C7U A10U, the self-cleavage rises from 0.947 to 0.981.

Going from C7U A13C to C7U A13G, the self-cleavage rises from 0.871 to 0.936.

First: C7U A15C
Second: C7U A15G
The self-cleavage of the first is lower: 0.693 for the first, 0.927 for the second.

First: C7U A15U
Second: C7U A16C
The self-cleavage of the first is higher: 0.534 for the first, 0.145 for the second.

Going from C7U A16U to C7U A23C, the self-cleavage rises from 0.617 to 0.87.

Compared with C7U A23G, C7U A23U is higher in self-cleavage: 0.909 for the first, 0.955 for the second.

Going from C7U A40C to C7U A40G, the self-cleavage rises from 0.282 to 0.934.

Compared with C7U A40U, C7U A42C is higher in self-cleavage: 0.683 for the first, 0.901 for the second.

Going from C7U A42U to C7U A51C, the self-cleavage rises from 0.899 to 0.966.

Compared with C7U A51G, C7U A51U is lower in self-cleavage: 0.984 for the first, 0.976 for the second.

Going from C7U A52C to C7U A59C, the self-cleavage falls from 0.914 to 0.403.

Compared with C7U A59G, C7U A59U is lower in self-cleavage: 0.93 for the first, 0.554 for the second.

First: C7U A60G
Second: C7U A60U
The self-cleavage of the first is higher: 0.789 for the first, 0.244 for the second.
